Reference: patent publication US5106621A, “Cysteine proteinases, production and use” (priority 1987, dated 1992)

Columns and labels:
Format in all cases: biochemical, Ananas comosus
[1] = substrate: Cc1cc(=O)oc2cc(NC(=O)[C@H](CCCNC(=N)N)NC(=O)[C@H](CCCNC(=N)N)NC(=O)OCc3ccccc3)ccc12; experiment: Kinetics of hydrolysis of fluorimetric substrates by ananain; conditions: other: ananain, 40° C., pH 6.8 buffer, 0.007% Brij 35, substrate 2 to 100 μM, spread = standard deviation
Protocol: (§1) used for this example was obtained by the method described in Example 1: the bromelain used was as in Example 4. For the determination of kinetic parameters Km (the Michaelis Constant) and kcat (the turnover number) of hydrolysis of Z-Phe-Arg-NHMec and Z-Arg-Arg-NHMec, measurements of the initial rates of reaction were made in 0.007% Brij 35 at 40° C. The enzymes (1×10^-11 M to 1×10^-9 M final concentration of activatable enzyme as determined by active-site titration) were activated in 0.75 ml of 4-fold concentrated buffer in a fluorimetric cuvette at 40° C. for 2 min, to which pre-warmed 0.01% Brij was added, followed by substrate to a final volume of 3.0 ml. Continuous rate assays were carried out using a temperature-controlled cell, with stirring, in the fluorimeter ([…]), standardized so that 1000 arbitrary units corresponded to 0.2 μM coumarin (i.e. at most, 10% substrate hydrolysis). Substrate concentration(s) used were in the range 2 to 100 μM. Visual inspection of the data was performed using the direct linear plot and plots of s/v against s (v being the rate of product formation). (Henderson, P. J. F., Techniques in Protein and Enzyme Biochemistry, B113, 1-43, 1978). Values of Km and Vmax (the maximum rate of product formation at a given enzyme concentration) were calculated by the method of Wilkinson, G. N., Biochem. J., 80, 324-332, 1961.

[2] = substrate: Cc1cc(=O)oc2cc(NC(=O)[C@H](CCCNC(=N)N)NC(=O)[C@H](Cc3ccccc3)NC(=O)OCc3ccccc3)ccc12; experiment: as above; conditions: other: ananain, 40° C., pH 6.8 buffer, 0.007% Brij 35, substrate 2 to 100 μM, spread = standard deviation
Protocol: as §1

[3] = substrate: Cc1cc(=O)oc2cc(NC(=O)[C@H](CCCNC(=N)N)NC(=O)[C@H](CCCNC(=N)N)NC(=O)OCc3ccccc3)ccc12; experiment: Kinetics of hydrolysis of fluorimetric substrates by bromelain; conditions: other: bromelain, 40° C., pH 6.8 buffer, 0.007% Brij 35, substrate 2 to 100 μM, spread = standard deviation
Protocol: (§2) The enzymes used were affinity purified ananain and comosain (Examples 1 and 2) and bromelain, which was obtained from chromatography-purified Sigma bromelain (catalogue number B 5144) by affinity chromatography on a column of Sepharose-aminohexanoyl-Gly-Phe-Gly-semicarbazide, followed by dialysis into 1 mM EDTA and lyophilisation. The proteinases were standardised by E-64 titration as described in Example 8.
(§3) Ananain used for this example was obtained by the method described in Example 1: the bromelain used was as in Example 4.
as §1, with “For” for “used for this example was obtained by the method described in Example 1: the bromelain used was as in Example 4. For”

[4] = substrate: Cc1cc(=O)oc2cc(NC(=O)[C@H](CCCNC(=N)N)NC(=O)[C@H](Cc3ccccc3)NC(=O)OCc3ccccc3)ccc12; experiment: as above; conditions: other: bromelain, 40° C., pH 6.8 buffer, 0.007% Brij 35, substrate 2 to 100 μM, spread = standard deviation
Protocol: as §2, §3
as §1, with “For” for “used for this example was obtained by the method described in Example 1: the bromelain used was as in Example 4. For”

B1: ananain, cysteine proteinase purified from pineapple (Ananas comosus) stem extract (Ananas comosus) (protein)
chain: VPQSIDWRDSGAVTSVKNQGRCGSCWAFASIATVESIYKIKRGNLVSLSEQQVLDCAVSYGCKGGWINKAYSFIISNKGVASAAIYPYKAAKGTCKTNGVPNSAYITRYTYVQRNNERNMMYAVSNQPIAAALDASGNFQHYKRGVFTGPCGTRLNHAIVIIGYGQDSSGKKFWIVRNSWGAGWGEGGYIRLARDVSSSFGLCGIAMDPLYPTLQS
notes: from tissue; host or cells: pineapple stem extract (from the earlier reading)
With B1 the Km [1] was 44.5 (±9.0) μM, the kcat [1] was 0.323 (±0.03) s^-1 and the kcat/Km [1] was 0.007 (±0.002) s^-1 · μM^-1. The Km [2] was 48.3 (±4.8) μM, the kcat [2] was 7.07 (±0.3) s^-1 and the kcat/Km [2] was 0.146 (±0.02) s^-1 · μM^-1.

B2: bromelain (stem bromelain, EC 3.4.22.4), affinity purified from Sigma bromelain, pineapple (Ananas comosus) stem (Ananas comosus) (protein)
chain: AVPQSIDWRDYGAVTSVKNQNPCGACWAFAAIATVESIYKIKKGILEPLSEQQVLDCAKGYGCKGGWEFRAFEFIISNKGVASGAIYPYKAAKGTCKTDGVPNSAYITGYARVPRNNESSMMYAVSKQPITVAVDANANFQYYKSGVFNGPCGTSLNHAVTAIGYGQDSIIYPKKWGAKWGEAGYIRMARDVSSSSGICGIAIDPLYPTLEE
notes: purchased Sigma B 5144
B2 was tested, and the Km [3] was 15.4 (±2.8) μM, the kcat [3] was 27.3 (±1.9) s^-1 and the kcat/Km [3] was 1.77 (±0.37) s^-1 · μM^-1. For the same protein, the Km [4] was 83.1 (±14.1) μM, the kcat [4] was 0.14 (±0.01) s^-1 and the kcat/Km [4] was 0.0016 (±0.0003) s^-1 · μM^-1.
